From patent US20090023658A1 (TOSHIKAZU NAKAMURA, published 2009)

B1: HGF/NK4 (PyrGlu32-Val478 region of human HGF, obtained by elastase digestion of recombinant HGF) (ligand)
chain: ERKRRNTIHEFKKSAKTTLIKIDPALKIKTKKVNTADQCANRCTRNKGLPFTCKAFVFDKARKQCLWFPFNSMSSGVKKEFGHEFDLYENKDYIRNCIIGKGRSYKGTVSITKSGIKCQPWSSMIPHEHSFLPSSYRGKDLQENYCRNPRGEEGGPWCFTSNPEVRYEVCDIPQCSEVECMTCNGESYRGLMDHTESGKICQRWDHQTPHRHKFLPERYPDKGFDDNYCRNPDGQPRPWCYTLDPHTRWEYCAIKTCADNTMNDTDVPLETTECIQGQGEGYRGTVNTIWNGIPCQRWDSQYPHEHDMTPENFKCKDLRENYCRNPDGSESPWCFTTDPNIRVGYCSQIPNCDMSHGQDCYRGNGKNYMGNLSQTRSGLTCSMWDKNMEDLHRHIFWEPDASKLNENYCRNPDDDAHGPWCYTGNPLIPWDYCPISRCEGDTTPTIV
modifications: N-terminal residue is pyroglutamate (PyrGlu32 by prepro-HGF numbering; Xaa at position 1 of SEQ ID NO:1)
notes: also called unlabeled HGF/NK4

Experiments:
[1] = molecular target: c-Met/HGF receptor of rat liver plasma membrane (rat) (UniProt P97523); assay: Scatchard analysis, 125I-HGF on rat liver plasma membrane
[2] = molecular target: c-Met/HGF receptor expressed on the lung tumor cell line A549 (UniProt P08581); assay: cell-based or functional assay
Chain of c-Met/HGF receptor expressed on the lung tumor cell line A549 (P08581 25-1390 limits assumed): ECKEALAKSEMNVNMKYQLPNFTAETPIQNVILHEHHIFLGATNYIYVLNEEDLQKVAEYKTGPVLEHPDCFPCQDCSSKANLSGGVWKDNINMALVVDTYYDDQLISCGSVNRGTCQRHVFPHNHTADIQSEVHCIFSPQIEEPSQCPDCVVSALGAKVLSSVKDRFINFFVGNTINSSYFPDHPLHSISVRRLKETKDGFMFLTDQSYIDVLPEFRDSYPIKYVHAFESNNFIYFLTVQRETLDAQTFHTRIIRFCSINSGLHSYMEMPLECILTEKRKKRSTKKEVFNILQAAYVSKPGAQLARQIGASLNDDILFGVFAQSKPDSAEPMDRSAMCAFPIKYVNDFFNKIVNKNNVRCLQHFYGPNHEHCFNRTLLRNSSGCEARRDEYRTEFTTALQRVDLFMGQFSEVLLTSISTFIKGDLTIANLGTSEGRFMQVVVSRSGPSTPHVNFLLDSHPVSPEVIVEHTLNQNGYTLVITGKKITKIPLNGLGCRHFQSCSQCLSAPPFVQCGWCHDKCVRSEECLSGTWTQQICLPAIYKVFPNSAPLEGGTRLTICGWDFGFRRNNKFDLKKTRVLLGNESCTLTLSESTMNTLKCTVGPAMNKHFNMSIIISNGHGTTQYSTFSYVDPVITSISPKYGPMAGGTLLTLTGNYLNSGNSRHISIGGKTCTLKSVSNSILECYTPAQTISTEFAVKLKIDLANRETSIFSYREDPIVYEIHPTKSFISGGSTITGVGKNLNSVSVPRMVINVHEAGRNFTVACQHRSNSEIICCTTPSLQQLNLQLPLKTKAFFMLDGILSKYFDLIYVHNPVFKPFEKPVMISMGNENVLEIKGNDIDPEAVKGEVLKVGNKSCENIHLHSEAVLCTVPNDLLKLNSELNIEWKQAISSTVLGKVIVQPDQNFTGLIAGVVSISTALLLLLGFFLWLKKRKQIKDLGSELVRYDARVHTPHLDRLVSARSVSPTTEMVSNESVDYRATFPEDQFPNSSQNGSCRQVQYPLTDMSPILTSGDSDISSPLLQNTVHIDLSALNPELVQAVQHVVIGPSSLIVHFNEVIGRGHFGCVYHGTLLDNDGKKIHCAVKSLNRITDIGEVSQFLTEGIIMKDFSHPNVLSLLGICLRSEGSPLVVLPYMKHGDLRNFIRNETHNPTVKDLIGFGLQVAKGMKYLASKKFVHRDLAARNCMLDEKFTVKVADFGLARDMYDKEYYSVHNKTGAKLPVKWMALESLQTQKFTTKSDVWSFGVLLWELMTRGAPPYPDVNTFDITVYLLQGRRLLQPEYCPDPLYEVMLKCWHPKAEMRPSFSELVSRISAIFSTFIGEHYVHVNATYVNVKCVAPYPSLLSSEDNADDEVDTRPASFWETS

[3] = molecular target: c-Met/HGF receptor of rat liver plasma membrane (rat) (UniProt P97523); assay: displacement of 60 pM 125I-HGF from rat liver plasma membrane
[4] = molecular target: T1, c-Met/HGF receptor of rat liver plasma membrane (rat, UniProt P97523 25-1382); assay: as above
T1 construct: whole, on cells; The assay used a plasma membrane preparation, not a purified receptor; also called cell surface receptor; HGF receptors
Excerpt: (§1) Using the HGF/NK4 prepared in Example 1, its binding affinity for the cell surface receptor was investigated. As a control experiment, the binding affinity of HGF for the cell surface receptor was also investigated. In this connection, the HGF/NK4 and HGF were radio-labeled (¹²⁵I-HGF/NK4 and ¹²⁵I-HGF) by the chloramine-T method, and as the cell surface receptor sample, the plasma membrane prepared from the rat liver was used.
Then, to investigate whether HGF/NK4 is a competitive antagonist of HGF, the liver plasma membrane (50 μg) was incubated in the presence of ¹²⁵I-HGF alone (60 pM) or a mixture of ¹²⁵I-HGF and a varying amount of unlabeled HGF or unlabeled HGF/NK4.

[5] = molecular target: T1, c-Met/HGF receptor of rat liver plasma …; assay: Scatchard analysis, 125I-HGF/NK4 on rat liver plasma membrane
Excerpt: as §1

| Molecule | Kd [1] | tyrosine phosphorylation of c-Met in A549 cells (immunoprecipitation with anti-c-Met antibody, Western blot with anti-phosphotyrosine antibody) [2] | IC50 [3] | IC50 [4] | Kd [5] |
| --- | --- | --- | --- | --- | --- |
| recombinant human hepatocyte growth factor (HGF), heterodimer of alpha-chain and beta-chain (from UniProt P14210 32-494; P14210 495-728) (ligand) | 0.0645 nM | 110 pM | 0.06 nM |  |  |
| B1 |  |  |  | 0.6 nM | 0.486 nM |
